Four molecules from article PMC6846478 can be followed below.

Data set [1] has as its target T1, NLuc-P54nrb full length (human, UniProt Q15233 1-471).
T1 sequence: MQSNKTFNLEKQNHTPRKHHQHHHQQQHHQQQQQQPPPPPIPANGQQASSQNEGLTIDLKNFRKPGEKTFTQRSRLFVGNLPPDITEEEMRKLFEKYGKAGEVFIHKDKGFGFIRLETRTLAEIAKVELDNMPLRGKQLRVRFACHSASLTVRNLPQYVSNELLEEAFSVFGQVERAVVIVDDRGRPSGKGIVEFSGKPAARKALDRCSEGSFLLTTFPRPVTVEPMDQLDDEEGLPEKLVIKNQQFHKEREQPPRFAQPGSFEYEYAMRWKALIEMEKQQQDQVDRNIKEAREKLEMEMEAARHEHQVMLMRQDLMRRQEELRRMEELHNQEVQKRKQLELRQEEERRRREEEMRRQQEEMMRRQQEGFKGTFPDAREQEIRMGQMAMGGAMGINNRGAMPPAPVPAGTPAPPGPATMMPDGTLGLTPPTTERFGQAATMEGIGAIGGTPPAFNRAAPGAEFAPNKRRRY
The experiment in a line: NanoBRET. (In BRET a luciferase serves as donor, and the signal depends on an acceptor being close.)

The target of a further data set is T2, RNase H1 HBD K59A,K60A (human, UniProt O60930 1-80, K59A;K60A).
T2 sequence: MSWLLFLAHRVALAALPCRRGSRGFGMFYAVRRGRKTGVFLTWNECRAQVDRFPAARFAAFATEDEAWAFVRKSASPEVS
Description: NanoBRET.

The target of a further data set is T3, RNase H1 CAT N151A (human, UniProt O60930 81-286, N151A).
T3 sequence: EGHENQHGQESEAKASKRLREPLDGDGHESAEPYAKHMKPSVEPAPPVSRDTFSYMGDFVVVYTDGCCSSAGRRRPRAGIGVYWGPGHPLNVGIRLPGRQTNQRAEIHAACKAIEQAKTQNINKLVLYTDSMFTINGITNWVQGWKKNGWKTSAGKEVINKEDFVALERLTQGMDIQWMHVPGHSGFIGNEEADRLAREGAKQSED
Description: NanoBRET.

For a further data set, the target named is T4, RNase H1 CAT R179A (human, UniProt O60930 81-286, R179A).
T4 sequence: T3 sequence with A71N, R99A
Description: NanoBRET.

The target in data set [2] is T1, NLuc-P54nrb full length. Description: competition.

Positions count from the first letter of the chain named. Where only a bound is given, the exact number is not on record here.

For the molecule CTGCTAGCCTCTGGATTTGA (XNA, full PS; 5-10-5 gapmer, 2'-F wings, DNA gap) [ASO 766638 (2'-F gapmer)], the Kd – broadly, the constant that tells how readily two partners part at equilibrium – in the data set with NLuc-P54nrb full length [1] is approximately 3 nM.

B1: PO DNA/RNA heteroduplex (DNA:RNA)
DNA: CTGCTAGCCTCTGGATTTGA
RNA: UCAAAUCCAGAGGCUAGCAG
For B1, the binding signal with RNase H1 HBD K59A,K60A is approximately 10 fold weaker than WT HBD; with RNase H1 CAT N151A, more than 7 fold weaker than WT CAT; with RNase H1 CAT R179A, more than 2 fold weaker than WT CAT.
Take CTGCTAGCCTCTGGATTTGA (ssDNA) [PO DNA]: in the data set with NLuc-P54nrb full length [2], the binding result is given as “no binding”.
The same measure, in the same setting: with CUGCUAGCCUCUGGAUUUGA (ssRNA) [PO RNA] the entry was “no binding”.
